Measurements reported in patent US20260125454A1 (SHANGHAI JUNSHI BIOSCIENCES, published 2026).
Changes are numbered by the printed parent chain. Several values for one entry are separate records, joined by “and”; a condition that tells them apart may be missing. Equal values may be shown once. Read-outs that look alike come from different tables or passages of the source. Bridges are numbered along the chain shown (N, C = ends). Where no end group is shown, it is not given here. The star is where a group is joined. Biotin = O=C1N[C@H]2[C@H](CS[C@H]2CCCCC(=O)*)N1

T1: Biotin-huCGRPaSA (human, not fully specified; biotin (position not given))
T1 construct: exact construct ('aSA') not explained; also called Biotin CGRPaSA; full-length (1-37) CGRP
T1 peptide: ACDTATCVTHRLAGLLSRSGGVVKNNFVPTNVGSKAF

T2: Biotin-1-19 polypeptide (human, disulfide 2-7; not fully specified (N-terminus); printed as Biotin-Linker(G5)-ACDTATCVTHRLAGLLSRS; ends not checked; also: biotin, position not given here)
T2 construct: also called fragment CGRP (1-19); truncated (1-19) CGRP
T2 peptide: ACDTATCVTHRLAGLLSRS

T3: hCGRP(1-19) (human, N-terminal biotin; CYS residues at positions 7 and 12 theoretically form 1 intrachain disulfide bond)
T3 construct: also called polypeptide 1-19
T3 peptide: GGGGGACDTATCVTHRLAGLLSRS

T4: hCGRP(1-37) (human, N-terminal biotin; C-terminal phenylalanine amide (F-NH2); CYS residues at positions 7 and 12 theoretically form 1 intrachain disulfide bond)
T4 construct: also called polypeptide 1-37; full-length hCGRP (1-37) polypeptide
T4 peptide: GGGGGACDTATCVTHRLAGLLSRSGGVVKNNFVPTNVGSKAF

T5: hCGRP(8-19) (human)
T5 construct: also called polypeptide 8-19
T5 peptide: Biotin-GGGGGVTHRLAGLLSRS

T6: hCGRP(8-26) (human, N-terminal biotin)
T6 construct: also called polypeptide 8-26
T6 peptide: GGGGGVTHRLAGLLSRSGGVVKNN

B1: C245 (antibody, V domains shown)
VH: EVQLQQSGPELVKPGASMKISCKASGYSFTGYTMNWVKQSHGNNLEWIGLINPYIGNTHYNQKFKDKATFTVDRSSSTAYMALLSLTSEDSAVYYCARELDSGFDYWGQGTTLTVSS
VL: DVLMTQTPLSLPVSLGDQASLSCRSSQNIVHSNGDTYLEWYLQKPGQSPKLLIYKVSNRFSGVPDRFSGSGSGTDFTLKISRVEAEDLGVYYCYQGSHVPWTFGGGTKLEIK
notes: 3C1-HC + 3C1-LC; chimeric, human constant regions; also called chimeric antibody C245
B2: C71 (antibody, V domains shown)
VH: EVQLQQSGPELVKPGASVKISCKTSGYTFIDFNMHWVKQSHGKSLEWIGYIYPYNGDVVYNQNFTNKATLTVDSSSSTAYMELRRVTSEDSAIYYCAREGLGGYWGQGTTLTVSS
VL: DIVLTQSPASLAVSLGQRATISCKASQNIDYDGYAYLNWYQQKPGQPPKVLIYSVFNLESGIPARFSGSGSGTDFTLNIHPVEEEDAATYYCQQSNEFPYTFGGGTKLEVK
notes: 1F5-HC + 1A2-LC2; chimeric, human constant regions
B3: C232 (antibody, V domains shown)
VH: B1 VH
VL: B2 VL
notes: 3C1-HC + 1A2-LC2; chimeric, human constant regions
B4: C117 (antibody, V domains shown)
VH: EVQLQQSGPELVKPGASVKISCKASGYTFTDYNMHWVKQSHGKSLEWIGNIYPYNGGTVYNQKFNNKATLTVHTSSSTAYMDLRSLTSDDSAVYYCAREGLGGYWGQGTTLTVSS
VL: B2 VL
notes: 2B8-HC1 + 1A2-LC2; chimeric, human constant regions
B5: C74 (antibody, V domains shown)
VH: B2 VH
VL: B2 VL with Y31F, L37M, Q42H, K49R, N96H, F98V, K107N, V110I
notes: 1F5-HC + 1F5-LC1; chimeric, human constant regions
B6: C253 (antibody, V domains shown)
VH: B1 VH
VL: B2 VL with A9D, D32G, A35S, L37M, N78T, F98A, V110I, K111R
notes: 3C1-HC + 3H10-LC2; chimeric, human constant regions
B7: C235 (antibody, V domains shown)
VH: B1 VH
VL: B2 VL with Y31F, L37M, Q42H, K49R, N96H, F98V, K107N, V110I
notes: 3C1-HC + 1F5-LC1; chimeric, human constant regions
B8: C246 (antibody, V domains shown)
VH: B1 VH
VL: B2 VL with A35T, V55I, F98V, V110I
notes: 3C1-HC + 3E5-LC; chimeric, human constant regions
B9: hu224 Fab (Fab, V domains shown)
VH: QVQLVQSGAEVKKPGASVKVSCKASGYSFTGYTMNWVRQAPGQRLEWMGLINPYIGNTHYNQKFKDRVTFTVDRSSSTAYMELSSLRSEDTAVYYCARELDSGFDYWGQGTLVTVSS
VL: DVVMTQSPDSLAVSLGERATINCRSSQNIVHSNGDTYLEWYQQKPGQPPKLLIYKVSNRFSGVPDRFSGSGSGTDFTLTISSLQAEDVAVYYCYQGSHVPWTFGQGTKLEIK
notes: also called Fab monomer fragments derived from humanized antibody hu224

What was measured:
CGRP antigen [1] = experiment: cell-based or functional assay
CGRP antigen [2] = experiment: cell-based or functional assay; remark: listed apart in the source
Biotin-huCGRPaSA [3] = target: T1, Biotin-huCGRPaSA; experiment: ELISA, transfection supernatant, biotin-CGRP on streptavidin
Procedure: Streptavidin was diluted to 0.5 μg/mL by using PBS (Hyclone) and added into a plate at 100 μL/well. The plate was incubated in a thermostat incubator at 37° C. for 90 min and then washed. 2% BSA was added to the plate at 200 μL/well, and the plate was incubated in the thermostat incubator at 37° C. for 90 min and washed. Biotin-huCGRPaSA was diluted to 2.0 μg/mL with 2% BSA and added into the plate at 100 μL/well, and the plate was incubated in the thermostat incubator at 37° C. for 60 min. The reference antibody (47-RM) was diluted to 2500 ng/ml with a diluent (2% BSA) and serially 4-fold diluted to 0.15 ng/mL, and the chimeric antibodies were diluted with a cell supernatant stock solution. All the chimeric antibody solutions and the reference antibody solution were added into plates at 80 μL/well, and the plates were incubated in a thermostat incubator at 37° C. for 60 min and washed. An HRP-conjugated mouse anti-human antibody IgG4 (manufacturer: Southern Biotech, Cat. No. 9200-05; Fc specificity) was diluted 5000-fold with 2% BSA and added into the plates at 100 μL/well, and the plates were incubated in the thermostat incubator at 37° C. for 60 min and washed. 0.1 mg/mL chromogenic reagent TMB was carefully added at 100 μL/well to avoid bubbles, and the system was incubated at 37° C. for 10 min away from light for chromogenic reaction. Finally, a 2 M hydrochloric acid solution was added at 100 μL/well to stop the reaction while avoiding bubbles, and the plates were read on a microplate reader within 10 min (the detection wavelength was 450 nm; the reference wavelength was 620 nm).

Biotin-huCGRPaSA [4] = target: T1, Biotin-huCGRPaSA; experiment: ELISA, purified antibody; relative to reference 47-RM-20190815
Procedure: Streptavidin was diluted to […] by using PBS (Hyclone) and added into a plate at 100 μL/well. The plate was incubated in a thermostat incubator at 37° C. for 90 min and then washed. 2% BSA was added to the plate at 200 μL/well, and the plate was incubated in the thermostat incubator at 37° C. for 90 min and washed. Biotin-huCGRPaSA was diluted to 2.0 μg/mL with 2% BSA and added into the plate at 100 μL/well, and the plate was incubated in the thermostat incubator at 37° C. for 60 min. The chimeric antibodies in Table 3 and reference antibody (47-RM-20190815) were diluted to 1000 ng/ml with a diluent (2% BSA) and serially 10-fold diluted to 1 ng/mL. All the chimeric antibody solutions and the reference antibody solution were added into plates at 100 μL/well, and the plates were incubated in a thermostat incubator at 37° C. for 60 min and washed. An HRP-conjugated mouse anti-human antibody IgG4 (manufacturer: Southern Biotech, Cat. No. 9200-05; Fc specificity) was diluted 5000-fold with 2% BSA and added into the plates at 100 μL/well, and the plates were incubated in the thermostat incubator at 37° C. for 60 min and washed. 0.1 mg/mL chromogenic reagent TMB was carefully added at 100 μL/well to avoid bubbles, and the system was incubated at 37° C. for 5 min away from light for chromogenic reaction. Finally, a 2 M hydrochloric acid solution was added at 100 μL/well to stop the reaction while avoiding bubbles, and the plates were read on a microplate reader within 10 min (the detection wavelength was 450 nm; the reference wavelength was 620 nm). EC₅₀ was fit by using a four-parameter logistic regression (4PL) model.

Biotin-1-19 polypeptide = target: T2, Biotin-1-19 polypeptide; experiment: ELISA, transfection supernatant, biotin-CGRP(1-19) on streptavidin
Procedure: Streptavidin was diluted to 0.5 μg/mL by using PBS (Hyclone) and added into a plate at 100 μL/well. The plate was incubated in a thermostat incubator at 37° C. for 90 min and then washed. 2% BSA was added to the plate at 200 μL/well, and the plate was incubated in the thermostat incubator at 37° C. for 90 min and washed. Biotin-1-19 polypeptide was diluted to 2.0 μg/mL with 2% BSA and added into the plate at 100 μL/well, and the plate was incubated in the thermostat incubator at 37° C. for 60 min. The reference antibody (Lily) was diluted to 2500 ng/ml with a diluent (2% BSA) and then serially 4-fold diluted to 0.15 ng/ml. For chimeric antibodies, the stock solution was diluted. All the chimeric antibody solutions and the reference antibody solution were added into plates at 80 μL/well, and the plates were incubated in a thermostat incubator at 37° C. for 60 min and washed. An HRP-conjugated mouse anti-human antibody IgG4 (manufacturer: Southern Biotech, Cat. No. 9200-05; Fc specificity) was diluted 5000-fold with 2% BSA and added into the plates at 100 µL/well, and the plates were incubated in the thermostat incubator at 37° C. for 60 min and washed. 0.1 mg/mL chromogenic reagent TMB was carefully added at 100 μL/well to avoid bubbles, and the system was incubated at 37° C. for 10 min away from light for chromogenic reaction. Finally, a 2 M hydrochloric acid solution was added at 100 μL/well to stop the reaction while avoiding bubbles, and the plates were read on a microplate reader within 10 min (the detection wavelength was 450 nm; the reference wavelength was 620 nm).

CGRP antigen [5] = experiment: cell-based or functional assay; remark: listed apart in the source
hCGRP(1-19) = target: T3, hCGRP(1-19); experiment: BLI (Octet), biotin-peptide on SA probe, 45 nM Fab
Procedure: (§1) The kinetic parameters of C245 Fab (Fab monomer fragments derived from antibody C245) binding to six synthetic human CGRP alpha polypeptide fragments (polypeptide 1-13, polypeptide 1-19, polypeptide 1-37, polypeptide 8-19, polypeptide 8-26, and polypeptide 13-24) were determined on an Octet RBD 96e system. Human CGRP synthetic polypeptide fragments were immobilized on the surfaces of SA bioprobes (Sartorius, Cat. No. 18-5019) at the following concentrations: 46.5 nM for hCGRP (1-13), 8.5 nM for CGRP (1-19), 15.5 nM for hCGRP (1-37), 8.5 nM for hCGRP (8-19), 15.5 nM for hCGRP (8-26), and 46.5 nM for hCGRP (13-24). The immobilized synthetic human CGRP polypeptide fragments were bound to 45 nM of C245 Fab and the binding dissociation curves were fitted using analytical software.
(§2) The kinetic parameters of hu224 Fab (Fab monomer fragments derived from humanized antibody hu224) binding to four synthetic human CGRP alpha polypeptide fragments (polypeptide 1-13, polypeptide 1-19, polypeptide 1-37, and polypeptide 8-19) were determined on an Octet RBD 96e system. Human CGRP synthetic polypeptide fragments were immobilized on the surfaces of SA bioprobes (Sartorius, Cat. No. 18-5019) at the following concentrations: 8.5 nM for CGRP (1-19), 15.5 nM for hCGRP (1-37), 10 nM for hCGRP (8-19), and 15.5 nM for hCGRP (8-26). The immobilized synthetic human CGRP polypeptide fragments were bound to 45 nM of hu224 Fab and the binding dissociation curves were fitted using analytical software.

hCGRP(1-37) = target: T4, hCGRP(1-37); experiment: BLI (Octet), biotin-peptide on SA probe, 45 nM Fab
Procedure: as §1, §2

hCGRP(8-19) = target: T5, hCGRP(8-19); experiment: BLI (Octet), biotin-peptide on SA probe, 45 nM Fab
Procedure: as §1, §2

hCGRP(8-26) = target: T6, hCGRP(8-26); experiment: BLI (Octet), biotin-peptide on SA probe, 45 nM Fab
Procedure: as §1, §2

| Binder | OD value (Biotin-huCGRPaSA [3]) | Relative activity (%) (Biotin-huCGRPaSA [4]) | OD value (Biotin-1-19 polypeptide) | Relative binding activity (%) vs Ref(Teva) (CGRP antigen [5]) | further results |
| --- | --- | --- | --- | --- | --- |
| B1 | 3.31 OD | 240% | 2.51 OD | – | Relative binding activity (%) vs Ref(Teva) (CGRP antigen [1]): 116%; IC50 of reference C245 (CGRP antigen [2]): 0.018 µg/mL and 0.0236 µg/mL and 0.0259 µg/mL and 0.0281 µg/mL |
| B2 | 3.06 OD | 47.3% | – | 106% | – |
| B3 | 3.28 OD | 3.4% | 3.15 OD | – | – |
| B4 | 3.06 OD | 31.7% | – | 74.1% | – |
| B5 | 3.06 OD | 39.5% | – | 76% | – |
| B6 | 2.46 OD | – | 2.94 OD | – | – |
| B7 | – | – | 2.84 OD | – | – |
| B8 | – | – | 0.91 OD | – | – |
| B9 | – | – | – | – | Kd (hCGRP(1-19)): 0.0823 nM; koff (hCGRP(1-19)): 2.62e-05 s⁻¹; kon (hCGRP(1-19)): 318000 M⁻¹ s⁻¹; Kd (hCGRP(1-37)): 0.288 nM; koff (hCGRP(1-37)): 7.97e-05 s⁻¹; kon (hCGRP(1-37)): 277000 M⁻¹ s⁻¹; Kd (hCGRP(8-19)): 0.445 nM; koff (hCGRP(8-19)): 0.000151 s⁻¹; kon (hCGRP(8-19)): 341000 M⁻¹ s⁻¹; Kd (hCGRP(8-26)): 1.18 nM; koff (hCGRP(8-26)): 0.000374 s⁻¹; kon (hCGRP(8-26)): 316000 M⁻¹ s⁻¹ |
